Laboratory results reported in paper PMC11140114 (2024).
One block for each binder: values may come before it.

Molecular target: recombinant human dynamin-related protein 1 (Drp1), isoform 1 (human, UniProt O00429 1-736)
Assay: BLI

Sequence of recombinant human dynamin-related protein 1 (Drp1), isoform 1 (O00429 whole entry, canonical isoform): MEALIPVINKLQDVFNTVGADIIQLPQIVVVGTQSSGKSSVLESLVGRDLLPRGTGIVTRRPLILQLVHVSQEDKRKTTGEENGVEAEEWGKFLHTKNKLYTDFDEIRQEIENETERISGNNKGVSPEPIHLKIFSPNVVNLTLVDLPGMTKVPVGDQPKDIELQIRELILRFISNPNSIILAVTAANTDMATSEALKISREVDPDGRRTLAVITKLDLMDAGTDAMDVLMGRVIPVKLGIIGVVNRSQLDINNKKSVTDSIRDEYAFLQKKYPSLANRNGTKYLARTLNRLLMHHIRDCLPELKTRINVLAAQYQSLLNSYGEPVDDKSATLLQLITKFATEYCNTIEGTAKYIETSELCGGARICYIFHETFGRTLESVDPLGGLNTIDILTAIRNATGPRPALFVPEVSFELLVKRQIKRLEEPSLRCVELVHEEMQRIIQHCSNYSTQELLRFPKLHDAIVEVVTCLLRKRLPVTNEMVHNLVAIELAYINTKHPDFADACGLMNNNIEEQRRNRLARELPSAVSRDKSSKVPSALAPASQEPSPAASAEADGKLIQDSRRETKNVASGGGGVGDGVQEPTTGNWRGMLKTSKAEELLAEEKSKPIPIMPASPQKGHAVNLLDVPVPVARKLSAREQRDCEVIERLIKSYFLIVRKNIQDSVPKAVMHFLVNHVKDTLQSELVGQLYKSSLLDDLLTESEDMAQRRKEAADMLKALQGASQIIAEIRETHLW

koff: 0.000117 s⁻¹
B1: Drp1-specific nanobody D7 (VHH)
VHH: QVQLVESGGGLVQPGGSLRLSCVASGFDFSTYSMTWHRQVLGKERELVASITPGGSRTNVADSVKGRFTISRDNAKNMLYLQMDRLKPEDTGMYYCAQGGYYAEPDYWGKGTRVTVSS
modifications: biotinylated for BLI (site not stated); covalently immobilised on NHS-activated sepharose via primary amino groups of accessible lysines for the nanotrap

koff: 0.000227 s⁻¹
B2: Drp1-specific nanobody D63 (VHH)
VHH: QVQLVESGGDLVQPGGSLKLSCAVSGVSDSLSSFYLMAWHRQAPGKQREMIADIVSGKATYADSVKGRFTISRDNAENTAYLQMNSLKPEDTAVYYCNVLIQNRSTFQSYWGQGTQVTVSS
modifications: biotinylated for BLI (site not stated); covalently immobilised on NHS-activated sepharose via primary amino groups of accessible lysines for the nanotrap
